In article PMC11034791:

Target: Neuropeptide Y (NPY) (UniProt P01303 29-64)
Assay: electrochemical impedance spectroscopy

B1: NPY aptamer (80-base ssDNA) (ssDNA)
DNA: AGCAGCACAGAGGTCAGATGCAAACCACAGCCTGAGTGGTTAGCGTATGTCATTTACGGACCTATGCGTGCTACCGTGAA
modifications: 5' disulfide C6 (reduced to thiol), immobilized on Au
binding result: binds
